Test results published in US20260109763A1 (DENALI THERAPEUTICS, published 2026).
Values belong to the binder of their own block, whether it stands above or below them.

What was measured:
human PILRB on cells = biological target: T1, human PILRB on cells (human, UniProt Q9UKJ0 20-227); assay: flow cytometry on hPILRB-DAP12 OE HEK293 cells
T1 construct: Expressed on CHO-K1 cells, or together with DAP12 on HEK293 cells (hPILRB-DAP12 OE HEK293); also called hPILRB; hPILRB-DAP12
Description: Human PILRB-DAP12 OE HEK293 cells were stained with NucBlue Live cell stain for 30 mins at RT. […] Cell lines were run in duplicates to account for intra-variability, for a total of N=3.

[1] = biological target: T2, human PILRA G78 extracellular domain (recombinant hPILRA ECD) (human, UniProt Q9UKJ1 20-197); assay: SPR, Biacore 8K; hPILRA ECD; antibody with wild-type Fc
T2 construct: also called hPILRA G78
T2 sequence (Q9UKJ1 20-197 R78G limits assumed): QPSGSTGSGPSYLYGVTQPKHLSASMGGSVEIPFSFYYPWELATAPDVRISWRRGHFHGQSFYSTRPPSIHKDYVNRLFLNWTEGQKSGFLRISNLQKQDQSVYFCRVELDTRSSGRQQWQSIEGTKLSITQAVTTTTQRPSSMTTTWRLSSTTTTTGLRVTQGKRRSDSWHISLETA
Description: Antibodies were captured on Biacore™ Series S CM5 sensor chips immobilized with mouse anti-human Fab (human Fab capture kit from GE Healthcare) followed by injections of serial 3-fold dilutions of recombinant ECD reagents at a flow rate of 30 μL/min. Each sample was analyzed using a 3-minute association followed by a 10-minute dissociation. After each injection, the sensor chip was regenerated using a 5 0 mM glycine pH2.0 regeneration buffer. A 1:1 Languir model of simultaneous fitting of kₒₙ and koff was used for kinetics analysis.
Characterization for binding affinities of the humanized antibodies to hPILRA ECD were measured by SPR using a Biacore 8K instrument (Table 7).

human PILRA R78 on cells [2] = biological target: T3, human PILRA R78 on cells (human, UniProt Q9UKJ1 20-303); assay: cell-based or functional assay
Target sequence in this assay (Q9UKJ1 20-303 limits assumed): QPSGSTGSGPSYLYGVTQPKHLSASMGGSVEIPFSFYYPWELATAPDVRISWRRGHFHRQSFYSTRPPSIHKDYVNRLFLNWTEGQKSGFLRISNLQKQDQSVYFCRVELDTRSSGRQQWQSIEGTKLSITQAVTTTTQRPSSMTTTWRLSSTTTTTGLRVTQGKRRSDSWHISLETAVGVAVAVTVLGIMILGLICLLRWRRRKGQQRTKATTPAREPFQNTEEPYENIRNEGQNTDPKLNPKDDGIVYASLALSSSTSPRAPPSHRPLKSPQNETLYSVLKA

human PILRA G78 on cells [3] = biological target: T4, human PILRA G78 on cells (human, UniProt Q9UKJ1 20-303); assay: flow cytometry on HEK293 cells expressing hPILRA G78
T4 construct: wild-type iMicroglia are R78/G78 heterozygous (said in the assay field); also called hPILRA; hPILRA G78
Target sequence in this assay (Q9UKJ1 20-303 R78G limits assumed): as the sequence (Q9UKJ1 20-303 limits assumed) above, with R59G counted along it

human PILRA G78 on cells [4] = biological target: T4, human PILRA G78 on cells; assay: cell-based or functional assay
Target sequence in this assay (Q9UKJ1 20-303 R78G limits assumed): as the sequence (Q9UKJ1 20-303 limits assumed) above, with R59G counted along it

human PILRA G78 on cells [5] = biological target: T4, human PILRA G78 on cells; assay: flow cytometry (MFI), CHO-K1 cells expressing hPILRA G78, Alexa Fluor 647 anti-human IgG
Description: (§1) PILRA G78 or R78 overexpressing HEK293 cells were stained with NucBlue Live cell stain for 30 mins at RT. […] Cell lines were run in duplicate to account for intra-variability, for a total of N=3. The same protocol was used for CHO-K1 cells expressing hPILRA G78.

[6] = biological target: T5, cynomolgus monkey PILRA extracellular domain (recombinant) (cynomolgus monkey); assay: SPR
T5 construct: also called cynoPILRA; Cyno PILRA
T5 sequence (chain, as listed by the source limits assumed): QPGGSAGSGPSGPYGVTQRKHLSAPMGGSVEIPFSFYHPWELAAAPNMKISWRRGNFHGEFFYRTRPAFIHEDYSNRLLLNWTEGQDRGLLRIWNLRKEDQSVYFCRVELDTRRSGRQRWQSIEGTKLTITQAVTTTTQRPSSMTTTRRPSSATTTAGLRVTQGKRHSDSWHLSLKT

[7] = biological target: T6, human PILRB extracellular domain (recombinant) (human, UniProt Q9UKJ0 20-191); assay: SPR
T6 construct: also called hPILRB
T6 sequence (Q9UKJ0 20-191 limits assumed): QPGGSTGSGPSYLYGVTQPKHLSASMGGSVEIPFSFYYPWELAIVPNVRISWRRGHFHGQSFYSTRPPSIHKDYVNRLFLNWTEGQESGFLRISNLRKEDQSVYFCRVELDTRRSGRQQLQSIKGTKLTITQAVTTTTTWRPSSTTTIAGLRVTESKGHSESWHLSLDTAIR

[8] = biological target: T7, human PILRA R78 extracellular domain (recombinant) (human, UniProt Q9UKJ1 20-197); assay: SPR
T7 construct: also called hPILRA R78
T7 sequence (Q9UKJ1 20-197 limits assumed): as the sequence (Q9UKJ1 20-197 R78G limits assumed) above, with G59R counted along it

[9] = biological target: T2, human PILRA G78 extracellular domain …; assay: SPR
human PILRA R78 on cells [10] = biological target: T3, human PILRA R78 on cells; assay: flow cytometry on PILRA R78 expressing HEK293 cells (FIG. 1F)
Description: as §1

T1 sequence (Q9UKJ0 20-227 limits assumed): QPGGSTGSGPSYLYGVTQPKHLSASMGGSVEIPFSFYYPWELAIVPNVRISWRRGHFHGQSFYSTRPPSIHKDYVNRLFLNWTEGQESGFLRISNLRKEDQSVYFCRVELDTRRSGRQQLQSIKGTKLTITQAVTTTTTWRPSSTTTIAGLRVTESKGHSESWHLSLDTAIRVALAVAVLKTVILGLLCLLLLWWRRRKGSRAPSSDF

- EC50 (human PILRB on cells): 1.2 nM
B1: PILRB binding positive control antibody (antibody, human IgG1, kappa, L234A L235A, V domains shown)
VH: QVQLQESGPGLVKPSGTLSLTCAVSGGSISSNHWWSWVRQPPGKGLEWIGEIYHYGTTDYNPSLQSRVTISVDKSKNQFSLKLTSVTAADTAVYFCARGLRDYYYYMDVWGKGTTVTVSS
VL: DIQMTQSPSSLSASVGDRVTITCRASQTISSYLNWYQQKPGKAPKLLIYAASSLQSGVPSRFSGSGFGTDFTLTISSLQPEDFATYYCQQSYSIPLTFGGGTKVEIKR

- Kd [1]: 1.71 nM
- pSTAT3 S727 induction, EC50 (nM) (human PILRA R78 on cells [2]): 10.6 nM
- pSTAT3 S727 induction, Fold Over Background (human PILRA R78 on cells [2]): 30.1 fold
- pSTAT3 Y705 induction, EC50 (nM) (human PILRA R78 on cells [2]): 6.19 nM
- pSTAT3 Y705 induction, Fold Over Background (human PILRA R78 on cells [2]): 41 fold
- EC50 (human PILRA G78 on cells [3]): 12.8 nM
- pSTAT3 S727 induction, EC50 (nM) (human PILRA G78 on cells [4]): 23 nM
- pSTAT3 S727 induction, Fold Over Background (human PILRA G78 on cells [4]): 28.9 fold
- pSTAT3 Y705 induction, EC50 (nM) (human PILRA G78 on cells [4]): 11.4 nM
- pSTAT3 Y705 induction, Fold Over Background (human PILRA G78 on cells [4]): 35.5 fold
- EC50 (read off the curve) (human PILRA G78 on cells [5]): ~10 nM
- Kd [6]: 5.3 nM
- Kd [7]: 150 nM
- Kd [8]: 25 nM
- Kd [9]: 1.4 nM
- EC50 (human PILRA R78 on cells [10]): 3.1 nM
B2: Anti-PILRA antibody clone 35 (antibody, V domains shown)
VH: EVQLVQSGAEVKKPGASVKVSCKASGYTFTEYYMYWVRQAPGQGLELIGRIDPEDGGTDYVEKFKNRATLTADTSTSTAYLELSSLRSEDTAVYFCASTIRGTVFVYWGQGTLVTVSS
VL: DIQMTQSPSSLSASVGDRVTITCRPSEDIYNGLAWYQQKPGKSPKLLIYNANSLHTGVPSRFSGSGSGTDYTLTISSLQPEDFATYFCQQYYDYPLTFGQGTKVEIK
notes: Humanized; also called Ab.35
